Laboratory results taken from patent US20230212549A1 (3B PHARMACEUTICALS, published 2023).
Numbered stars: 1 amine (or outer) side, 2 acyl side, 3 side chain; on linkers, the order of the positions; unused ones are H or OH. Bridge positions count the residues as written; N and C are the ends. Square brackets hold non-standard residues; d marks the D form. Primed or numbered codes have the meaning given here. * marks the point of attachment. tMeBn(DOTA-PP) = 1,3,5-trimethylbenzylidene, two thioethers to Cys, third CH2 bound to one N of piperazine whose other N bears DOTA, O=C(O)CN1CCN(CC(=O)O)CCN(CC(=O)N2CCN(Cc3cc(C[*:1])cc(C[*:2])c3)CC2)CCN(CC(=O)O)CC1; Ttds″ = 1,13-diamino-4,7,10-trioxatridecan-succinamic acid spacer, O=C(CCC(=O)[*:2])NCCCOCCOCCOCCCN[*:1]; TBMB(SCH2CH2NH-DOTA) = O=C(O)CN1CCN(CC(=O)O)CCN(CC(=O)NCCSCc2cc(C[*:1])cc(C[*:2])c2)CCN(CC(=O)O)CC1; Efa = N-[2-(2-amino-ethanesulfonyl)-ethyl]-succinamic acid, O=C(CCC(=O)[*:2])NCCS(=O)(=O)CCN[*:1]; Ttds = 1,13-diamino-4,7,10-trioxatridecan-succinamic acid, O=C(CCC(=O)[*:2])NCCCOCCOCCOCCCN[*:1]; Ttds(4) = spacer between chelator and peptide, O=C(CCC(=O)[*:2])NCCCOCCOCCOCCCN[*:1]; N4Ac = 6-Carboxy-1,4,8,11-tetraazaundecane, an N4-chelator, NCCNCC(CNCCN)C(=O)*; 3MeBn(3) = 3-methylbenzylidene (m-xylylene), from α,α′-dibromo-m-xylene; DOTA = O=C(O)CN1CCN(CC(=O)O)CCN(CC(=O)*)CCN(CC(=O)O)CC1; nBu‑CAyl = n-butylaminocarbonyl, CCCCNC(=O)*; mXylylene = c1cc(C[*:1])cc(C[*:2])c1; Pentanesulfonyl = CCCCCS(=O)(=O)*; NMeF = CN[C@@H](Cc1ccccc1)C(=O)O; 4Amb = NCc1ccc(C(=O)O)cc1; Nle = CCCC[C@H](N)C(=O)O; Hexanoyl = CCCCCC(=O)*; Sar = CNCC(=O)O

T1: recombinant human PREP (R&D systems, #4308-SE) (human, UniProt P48147 1-710)
T1 sequence: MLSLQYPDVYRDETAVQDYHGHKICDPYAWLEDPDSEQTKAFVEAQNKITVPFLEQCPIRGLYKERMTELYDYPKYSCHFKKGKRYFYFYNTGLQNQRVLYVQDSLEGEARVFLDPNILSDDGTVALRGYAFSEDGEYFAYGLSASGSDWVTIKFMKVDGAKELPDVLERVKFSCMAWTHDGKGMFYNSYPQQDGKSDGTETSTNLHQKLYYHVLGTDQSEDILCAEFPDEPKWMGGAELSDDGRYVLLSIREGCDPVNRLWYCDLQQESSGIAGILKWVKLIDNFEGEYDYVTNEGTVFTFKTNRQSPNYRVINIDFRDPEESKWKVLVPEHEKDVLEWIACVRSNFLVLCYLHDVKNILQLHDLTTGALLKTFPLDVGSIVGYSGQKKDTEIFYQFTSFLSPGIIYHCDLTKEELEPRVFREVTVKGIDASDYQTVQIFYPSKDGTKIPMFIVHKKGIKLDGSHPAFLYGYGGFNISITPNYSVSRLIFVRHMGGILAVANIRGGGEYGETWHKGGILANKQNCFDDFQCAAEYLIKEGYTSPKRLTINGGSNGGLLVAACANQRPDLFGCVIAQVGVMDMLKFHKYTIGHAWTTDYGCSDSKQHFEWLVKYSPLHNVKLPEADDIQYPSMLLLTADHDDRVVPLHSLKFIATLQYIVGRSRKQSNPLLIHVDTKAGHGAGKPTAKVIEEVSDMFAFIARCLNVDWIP


How the values were obtained:
[1] = molecular target: Recombinant human DPP4 (R&D systems, #9168-SE) (human, UniProt P27487 29-766); assay: cell-based or functional assay
[2] = molecular target: T1, recombinant human PREP (R&D systems, …); assay: cell-based or functional assay
[3] = molecular target: T2, human fibroblast activation protein (FAP) on WI-38 fibroblasts (human, UniProt Q12884 1-760); assay: competitive FACS, WI-38 cells, Cy5-labeled peptide as competitor; B = pIC50 7.1 to 8.0
T2 construct: FAP-expressing human WI-38 fibroblasts (ECACC)

[4] = molecular target: T3, Recombinant human FAP (R&D systems, #3715-SE) (human, UniProt Q12884 26-760); assay: SPR (Biacore T200), FAP captured on anti-FAP antibody, single cycle kinetics
T3 construct: bought; in SPR captured on immobilized anti-FAP antibody MAB3715; also called rhFAP; human recombinant FAP

[5] = molecular target: T3, Recombinant human FAP (R&D systems, …); assay: cell-based or functional assay
[6] = molecular target: T2, human fibroblast activation protein …; assay: competitive FACS, WI-38 cells, Cy5-labeled peptide as competitor

Sequence of Recombinant human DPP4 (R&D systems, #9168-SE) (P27487 29-766 limits assumed): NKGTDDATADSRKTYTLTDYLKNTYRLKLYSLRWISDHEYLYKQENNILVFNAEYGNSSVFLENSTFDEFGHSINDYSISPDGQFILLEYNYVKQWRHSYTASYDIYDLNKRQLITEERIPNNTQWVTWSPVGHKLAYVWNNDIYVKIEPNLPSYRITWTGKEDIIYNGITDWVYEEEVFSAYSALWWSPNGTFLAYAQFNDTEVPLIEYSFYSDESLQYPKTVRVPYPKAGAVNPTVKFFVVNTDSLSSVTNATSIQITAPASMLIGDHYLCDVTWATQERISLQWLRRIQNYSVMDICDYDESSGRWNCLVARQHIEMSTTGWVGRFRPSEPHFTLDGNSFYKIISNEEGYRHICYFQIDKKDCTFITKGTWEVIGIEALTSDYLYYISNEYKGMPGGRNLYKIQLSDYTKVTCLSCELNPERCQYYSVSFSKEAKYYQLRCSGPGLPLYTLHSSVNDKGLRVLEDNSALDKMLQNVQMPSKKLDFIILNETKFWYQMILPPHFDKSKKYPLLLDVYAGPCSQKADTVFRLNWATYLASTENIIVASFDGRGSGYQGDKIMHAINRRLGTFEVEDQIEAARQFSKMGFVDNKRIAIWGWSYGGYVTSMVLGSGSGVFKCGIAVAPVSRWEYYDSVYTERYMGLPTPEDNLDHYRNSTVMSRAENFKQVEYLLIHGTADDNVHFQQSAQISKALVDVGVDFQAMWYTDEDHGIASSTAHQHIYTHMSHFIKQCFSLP

| pIC50 (DPP4) [1] [pIC50] | pIC50 (PREP) [2] [pIC50] | pIC50 [3] [pic50] | pKD Category [4] [pKD] | pIC50 Category (Activity) [5] [pIC50] | pIC50 Category (FACS) [6] [pIC50] | Binder |
| --- | --- | --- | --- | --- | --- | --- |
| < 6 | < 6 |  |  |  |  | Hexanoyl-CPPTQFC-NH2 (linker 1-7 via mXylylene) [Hex-[Cys(3MeBn)-Pro-Pro-Thr-Gln-Phe-Cys]-NH2] |
|  |  | 7.1 to 8 |  |  |  | N4Ac-[Efa][Nle]CPPTEFC-OH (linker 3-9 via 3MeBn(3), also called 3BP-4243) [N4Ac-Efa-Nle-[Cys-(3MeBn)-Pro-Pro-Thr-Glu-Phe-Cys]-OH] |
| < 6 | < 6 |  |  |  |  | Hexanoyl-CPPTQFC-OH (bridge 1-7; not fully specified (bridges); printed as Hex-[Cys(tMeBn(DOTA-AET))-Pro-Pro-Thr-Gln-Phe-Cys]-OH; also: DOTA-AET attached to tMeBn scaffold) [Hex-[Cys(tMeBn(DOTA-AET))-Pro-Pro-Thr-Gln-Phe-Cys]-OH] |
| < 6 | < 6 |  | > 8 |  |  | Hexanoyl-CPPTEFCDHFRD[Ttds″]K(DOTA)-NH2 (linker 1-7 via mXylylene; SMILES CCCCCC(=O)N[C@H]1CSCc2cccc(c2)CSC[C@@H](C(=O)N[C@@H](CC(=O)O)C(=O)N[C@@H](Cc2c[nH]cn2)C(=O)N[C@@H](Cc2ccccc2)C(=O)N[C@@H](CCCNC(=N)N)C(=O)N[C@@H](CC(=O)O)C(=O)NCCCOCCOCCOCCCNC(=O)CCC(=O)N[C@@H](CCCCNC(=O)CN2CCN(CC(=O)O)CCN(CC(=O)O)CCN(CC(=O)O)CC2)C(N)=O)NC(=O)[C@H](Cc2ccccc2)NC(=O)[C@H](CCC(=O)O)NC(=O)[C@H]([C@@H](C)O)NC(=O)[C@@H]2CCCN2C(=O)[C@@H]2CCCN2C1=O) [Hex-[Cys(3MeBn)-Pro-Pro-Thr-Glu-Phe-Cys]-Asp-His-Phe-Arg-Asp-Ttds-Lys(DOTA)-NH2] |
| < 6 | < 6 |  | > 8 |  |  | Hexanoyl-CPPTQFCD-NH2 (linker 1-7 via mXylylene; SMILES CCCCCC(=O)N[C@H]1CSCc2cccc(c2)CSC[C@@H](C(=O)N[C@@H](CC(=O)O)C(N)=O)NC(=O)[C@H](Cc2ccccc2)NC(=O)[C@H](CCC(N)=O)NC(=O)[C@H]([C@@H](C)O)NC(=O)[C@@H]2CCCN2C(=O)[C@@H]2CCCN2C1=O) [Hex-[Cys(3MeBn)-Pro-Pro-Thr-Gln-Phe-Cys]-Asp-NH2] |
|  |  |  |  | > 8 | > 8 | {nBu‑CAyl}-C[Sar]PTQFC-NH2 (linker 1-7 via TBMB(SCH2CH2NH-DOTA); SMILES CCCCNC(=O)N[C@H]1CSCc2cc(CSCCNC(=O)CN3CCN(CC(=O)O)CCN(CC(=O)O)CCN(CC(=O)O)CC3)cc(c2)CSC[C@@H](C(N)=O)NC(=O)[C@H](Cc2ccccc2)NC(=O)[C@H](CCC(N)=O)NC(=O)[C@H]([C@@H](C)O)NC(=O)[C@@H]2CCCN2C(=O)CN(C)C1=O, also called 3BP-4621) [nBu-CAyl-[Cys(tMeBn(DOTA-AET))-Nmg-Pro-Thr-Gln-Phe-Cys]-NH2] |
| < 6 | < 6 |  | > 8 |  |  | Hexanoyl-CPPTQFCD-NH2 (linker 1-7 via tMeBn(DOTA-PP); SMILES CCCCCC(=O)N[C@H]1CSCc2cc(cc(CN3CCN(C(=O)CN4CCN(CC(=O)O)CCN(CC(=O)O)CCN(CC(=O)O)CC4)CC3)c2)CSC[C@@H](C(=O)N[C@@H](CC(=O)O)C(N)=O)NC(=O)[C@H](Cc2ccccc2)NC(=O)[C@H](CCC(N)=O)NC(=O)[C@H]([C@@H](C)O)NC(=O)[C@@H]2CCCN2C(=O)[C@@H]2CCCN2C1=O) [Hex-[Cys(tMeBn(DOTA-PP))-Pro-Pro-Thr-Gln-Phe-Cys]-Asp-NH2] |
| < 6 | < 6 |  | > 8 |  |  | Hexanoyl-CPPTQFCD-NH2 (linker 1-7 via tMeBn(DOTA-AET), also called 3BP-3426) [Hex-[Cys(tMeBn(DOTA-AET))-Pro-Pro-Thr-Gln-Phe-Cys]-Asp-NH2] |
|  |  |  | > 8 | > 8 | > 8 | Pentanesulfonyl-CPPTQFCD-NH2 (linker 1-7 via tMeBn(InDOTA-PP); also: In complex of DOTA (InDOTA), also called 3BP-3717) [Pentyl-SO2-[Cys(tMeBn(InDOTA-PP))-Pro-Pro-Thr-Gln-Phe-Cys]-Asp-NH2] |
|  |  |  | > 8 | > 8 | > 8 | Hexanoyl-CPPTQFCG-OH (linker 1-7 via tMeBn(InDOTA-AET); also: In complex (InDOTA), also called 3BP-3714) [Hex-[Cys(tMeBn(InDOTA-AET))-Pro-Pro-Thr-Gln-Phe-Cys]-Gly-OH] |
| < 6 | < 6 |  | > 8 |  |  | Hexanoyl-CPPTEFCDH[NMeF]R[Ttds″]K(DOTA)-NH2 (linker 1-7 via mXylylene; SMILES CCCCCC(=O)N[C@H]1CSCc2cccc(c2)CSC[C@@H](C(=O)N[C@@H](CC(=O)O)C(=O)N[C@@H](Cc2c[nH]cn2)C(=O)N(C)[C@@H](Cc2ccccc2)C(=O)N[C@@H](CCCNC(=N)N)C(=O)NCCCOCCOCCOCCCNC(=O)CCC(=O)N[C@@H](CCCCNC(=O)CN2CCN(CC(=O)O)CCN(CC(=O)O)CCN(CC(=O)O)CC2)C(N)=O)NC(=O)[C@H](Cc2ccccc2)NC(=O)[C@H](CCC(=O)O)NC(=O)[C@H]([C@@H](C)O)NC(=O)[C@@H]2CCCN2C(=O)[C@@H]2CCCN2C1=O, also called 3BP-3275) [Hex-[Cys(3MeBn)-Pro-Pro-Thr-Glu-Phe-Cys]-Asp-His-Nmf-Arg-Ttds-Lys(DOTA)-NH2] |
| < 6 | < 6 |  | > 8 |  |  | {DOTA}-[Ttds(4)][Nle]CPPTEFCDHFRD-NH2 (linker 3-9 via mXylylene; SMILES CCCC[C@H](NC(=O)CCC(=O)NCCCOCCOCCOCCCNC(=O)CN1CCN(CC(=O)O)CCN(CC(=O)O)CCN(CC(=O)O)CC1)C(=O)N[C@H]1CSCc2cccc(c2)CSC[C@@H](C(=O)N[C@@H](CC(=O)O)C(=O)N[C@@H](Cc2c[nH]cn2)C(=O)N[C@@H](Cc2ccccc2)C(=O)N[C@@H](CCCNC(=N)N)C(=O)N[C@@H](CC(=O)O)C(N)=O)NC(=O)[C@H](Cc2ccccc2)NC(=O)[C@H](CCC(=O)O)NC(=O)[C@H]([C@@H](C)O)NC(=O)[C@@H]2CCCN2C(=O)[C@@H]2CCCN2C1=O) [DOTA-Ttds-Nle-[Cys(3MeBn)-Pro-Pro-Thr-Glu-Phe-Cys]-Asp-His-Phe-Arg-Asp-NH2] |
|  |  |  | > 8 | > 8 | > 8 | Hexanoyl-C[Sar]PTQFC-OH (linker 1-7 via tMeBn(InDOTA-AET); not fully specified (residue 1); printed as Hex--[C(tMeBn(InDOTA--AET))--Nmg-PTQFC]-OH; also: DOTA complexing indium, also called 3BP-3716) [Hex-[Cys(tMeBn(InDOTA-AET))-Nmg-Pro-Thr-Gln-Phe-Cys]-OH] |
|  |  |  | > 8 | > 8 | > 8 | N4Ac-[Ttds″][Nle]CPPTEFC-OH (linker 3-9 via mXylylene; SMILES CCCC[C@H](NC(=O)CCC(=O)NCCCOCCOCCOCCCNC(=O)C(CNCCN)CNCCN)C(=O)N[C@H]1CSCc2cccc(c2)CSC[C@@H](C(=O)O)NC(=O)[C@H](Cc2ccccc2)NC(=O)[C@H](CCC(=O)O)NC(=O)[C@H]([C@@H](C)O)NC(=O)[C@@H]2CCCN2C(=O)[C@@H]2CCCN2C1=O, also called 3BP-4161) [N4Ac-Ttds-Nle-[Cys-(3MeBn)-Pro-Pro-Thr-Glu-Phe-Cys]-OH] |
| < 6 | < 6 |  | > 8 |  |  | {DOTA}-[Ttds][Nle]CPPTEFCD[4Amb]R-NH2 (linker 3-9 via mXylylene; SMILES CCCC[C@H](NC(=O)CCC(=O)NCCCOCCOCCOCCCNC(=O)CN1CCN(CC(=O)O)CCN(CC(=O)O)CCN(CC(=O)O)CC1)C(=O)N[C@H]1CSCc2cccc(c2)CSC[C@@H](C(=O)N[C@@H](CC(=O)O)C(=O)NCc2ccc(C(=O)N[C@@H](CCCNC(=N)N)C(N)=O)cc2)NC(=O)[C@H](Cc2ccccc2)NC(=O)[C@H](CCC(=O)O)NC(=O)[C@H]([C@@H](C)O)NC(=O)[C@@H]2CCCN2C(=O)[C@@H]2CCCN2C1=O, also called 3BP-3321) [DOTA-Ttds-Nle-[Cys(3MeBn)-Pro-Pro-Thr-Glu-Phe-Cys]-Asp-Pamb-Arg-NH2] |
| < 6 | < 6 |  | > 8 |  |  | {DOTA}-[Ttds][Nle]CPPTEFCD-NH2 (linker 3-9 via mXylylene; SMILES CCCC[C@H](NC(=O)CCC(=O)NCCCOCCOCCOCCCNC(=O)CN1CCN(CC(=O)O)CCN(CC(=O)O)CCN(CC(=O)O)CC1)C(=O)N[C@H]1CSCc2cccc(c2)CSC[C@@H](C(=O)N[C@@H](CC(=O)O)C(N)=O)NC(=O)[C@H](Cc2ccccc2)NC(=O)[C@H](CCC(=O)O)NC(=O)[C@H]([C@@H](C)O)NC(=O)[C@@H]2CCCN2C(=O)[C@@H]2CCCN2C1=O, also called 3BP-3320) [DOTA-Ttds-Nle-[Cys(3MeBn)-Pro-Pro-Thr-Glu-Phe-Cys]-Asp-NH2] |
